Results: US20030064069A1 (CAMBRIDGE ANTIBODY TECHNOLOGY, published 2003)
Residue numbers refer to the chain shown, from its start.

Tests used:
[1] = molecular target: T1, Recombinant human TGFβ1 (active TGFβ1) (human, UniProt P01137 279-390); assay: radioreceptor assay (RRA): scFv inhibits [125I]TGFβ1 binding to A549 cells; approx IC50
T1 construct: mature; Recombinant human TGFβ1 from R&D Systems; also called TGFb1
From the text: (§1) The scFv fragments were subsequently tested for their ability to neutralise binding of ¹²⁵I-TGFβ₁ to A549 cells in a radioreceptor binding assay (RRA), using the protocol described in Example 3 (see below). For the RRA, individual clones were expressed as soluble scFv and subsequently purified from periplasmic preparations by immobilised metal affinity chromatography (IMAC) followed by fractionation of monomeric scFv by gel filtration FPLC on a Superdex 75 column (Pharmacia).
(§2) A549 cells were seeded into 24-well plates at 2×10⁵ cells per well for 24 hours in order to achieve >90% confluency. Immediately before the assay, monolayers were washed twice with buffer (1:1 DMEM:Hams-F12) and 0.5 ml assay buffer (1:1 DMEM:Hams F12+0 1% BSA) was added. Two or three-fold serial dilutions of antibodies were prepared in assay buffer and added to an equal volume of 40 pM [¹²⁵I]TGFβ₁ in assay buffer.

[2] = molecular target: T2, Recombinant human latent TGFβ1 (human, UniProt P01137 30-278; P01137 279-390); assay: radioreceptor assay and TF1 proliferation assay in the presence of latent TGFβ1
T2 construct: domain: latency associated peptide;mature; From R&D Systems
T2 sequence (P01137 30-278 limits assumed, chain 1 of 2): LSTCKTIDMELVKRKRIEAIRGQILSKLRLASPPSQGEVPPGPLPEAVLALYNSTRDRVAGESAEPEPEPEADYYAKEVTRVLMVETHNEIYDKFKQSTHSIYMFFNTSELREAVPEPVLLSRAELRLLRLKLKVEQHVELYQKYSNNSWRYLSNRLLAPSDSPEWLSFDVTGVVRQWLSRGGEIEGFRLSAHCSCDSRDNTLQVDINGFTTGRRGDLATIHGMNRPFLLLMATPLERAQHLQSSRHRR
T2 sequence (P01137 279-390 limits assumed, chain 2 of 2): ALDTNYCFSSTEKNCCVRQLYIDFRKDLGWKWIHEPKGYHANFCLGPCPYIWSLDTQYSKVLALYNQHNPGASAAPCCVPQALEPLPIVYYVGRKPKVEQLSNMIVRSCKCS

[3] = molecular target: T1, Recombinant human TGFβ1 (active TGFβ1); assay: radioreceptor assay: inhibition of [125I]TGFβ1 binding to A549 cells; reference CS37 scFv
From the text: as §1, §2

[4] = molecular target: T1, Recombinant human TGFβ1 (active TGFβ1); assay: radioreceptor assay, his-preps of scFv (FIG. 2); reference JT182 scFv
Description: as §2
Purified preparations of SL15S scFv, SL15A IgG4, SL15S IgG4 and Mab ID.11.16 (Genzyme mAb) were also analysed (FIG. 3).

T1 sequence (P01137 279-390 limits assumed): as the sequence (P01137 279-390 limits assumed, chain 2 of 2) above

B1: CS37 scFv (31G9 VH/CS37 VL) (scFv, V domains shown)
VH: QVQLVQSGGGVVQPGRSLRLSCAASGFTFSSYGMHWVRQAPGKGLEWVAVISYDGSIKYYADSVKGRFTISRDNSKNTLYLQMNSLRAEDTAVYYCARTGEYSGYDTSGVELWGQGTTVTVSS
VL: EIVLTQSPSSLSASVGDRVTITCRASQGIGDDLGWYQQKPGKAPILLIYGTSTLQSGVPSRFSGSGSGTDFTLTINSLQPEDFATYYCLQDSNYPLTFGGGTRLEIK
notes: not shown: scFv linker, domain order and tag (on phage: the pCANTAB6 gene III fusion); WO97/13844 is cited for CS37
IC50 [1]: 10 to 15 nM

B2: SL15S scFv (SL15 VH/SL15S VL) (scFv, V domains shown)
VH: B1 VH with Q1E, Q6E, G44E, S108D, G109P, V110Q, E111Y, L112S
VL: B1 VL with A25S
notes: soluble scFv was purified by IMAC ('his-preps') and FPLC; also called CAT-191; CAT 191; not shown: scFv linker, domain order and His/other tag (on phage: the pCANTAB6 gene III fusion)
IC50 [1]: ~0.1 nM
binding result [2]: no binding
fold better than CS37 (IC50 in the RRA) [3]: ≥ 100 fold
fold more active than JT182 scFv [4]: 10 fold

B3: JT182 scFv (JT182 VH/CS37 VL) (scFv, V domains shown)
VH: B1 VH with Q6E, G44E, S108P, G109A, V110S, E111P, L112D
VL: B1 VL
notes: used as his-prep; not shown: scFv linker, domain order and His tag
IC50 [1]: 0.5 to 1 nM
